Assay results published in patent US20200360469A1 (published 2020).

Target: full-length (FL) BRAF^WT, 6x-HIS-BRAF-WT/FLAG (human, UniProt P15056 2-766)
Assay: kinase activity inhibition (ELISA); with 0.1 nM Dabrafenib

Sequence of full-length (FL) BRAF^WT, 6x-HIS-BRAF-WT/FLAG (P15056 2-766): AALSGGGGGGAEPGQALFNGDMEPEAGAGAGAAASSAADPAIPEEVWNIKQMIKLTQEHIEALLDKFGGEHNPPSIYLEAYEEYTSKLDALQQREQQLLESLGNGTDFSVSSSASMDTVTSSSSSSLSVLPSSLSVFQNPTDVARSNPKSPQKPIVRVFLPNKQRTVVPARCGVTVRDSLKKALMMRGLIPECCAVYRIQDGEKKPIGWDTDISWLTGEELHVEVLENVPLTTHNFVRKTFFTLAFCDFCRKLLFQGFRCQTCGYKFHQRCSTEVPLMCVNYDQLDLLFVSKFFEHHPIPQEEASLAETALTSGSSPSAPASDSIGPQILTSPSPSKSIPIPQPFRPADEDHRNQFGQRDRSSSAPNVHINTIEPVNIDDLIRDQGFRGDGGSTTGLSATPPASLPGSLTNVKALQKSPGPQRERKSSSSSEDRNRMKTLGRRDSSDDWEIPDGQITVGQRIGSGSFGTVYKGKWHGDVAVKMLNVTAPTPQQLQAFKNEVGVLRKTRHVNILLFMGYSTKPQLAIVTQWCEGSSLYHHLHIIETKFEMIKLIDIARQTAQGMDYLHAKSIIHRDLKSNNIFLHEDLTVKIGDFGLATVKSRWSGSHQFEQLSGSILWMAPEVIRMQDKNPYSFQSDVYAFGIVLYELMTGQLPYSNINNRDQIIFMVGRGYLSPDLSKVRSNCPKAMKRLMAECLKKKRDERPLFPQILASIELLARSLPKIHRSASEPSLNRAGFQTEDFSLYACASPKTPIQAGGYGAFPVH

TRHVNILLFM [braftide] was tested, and the IC50 was 280 nM.
